Experimental data reported in patent US20230416345A1, “NEW TYPE II COLLAGEN BINDING PROTEINS” (Navigo Proteins GmbH, priority 2020, published 2023).

Legend:
[1] = biological target: T1, hCol2 (human Type II collagen) (Homo sapiens, UniProt P02458); experiment: Binding analysis by SPR (Biacore 3000) vs human type II collagen; settings: dimers or tetramers; Langmuir 1:1 model
T1 construct: purchased Chondrex
Procedure: Proteins with affinity tag were purified by affinity chromatography and size exclusion. After affinity chromatography purification using Strep-Tactin Superflow high capacity cartridges (IBA Lifesciences) a size exclusion chromatography (SEC) was performed using an Äkta system and a Superdex™ 200 HiLoad 16/600 column (Cytiva). Fused variants with Aflibercept were purified via MabSelect SuRe (Cytiva) affinity chromatography followed by a size exclusion chromatography (SEC) using an Äkta system and a Superdex™ 200 HiLoad 16/600 column (Cytiva). All chromatography processing steps were carried out on AKTA systems using matrices from Cytiva. Homogenous species of all purified ligands were obtained; no aggregation was detected. Following SOS-PAGE analysis positive fractions were pooled and their protein concentrations were measured. Further analysis included SOS-PAGE, SE-HPLC and RP-HPLC. Protein concentrations were determined by absorbance measurement at 280 nm using the molar absorbent coefficient. Reversed phase chromatography (RP-HPLC) was performed using a Dionex HPLC system and a PLRP-S (5 μm, 300 Å) column (Agilent). Analytic size exclusion chromatography (SE-HPLC) was performed using a Dionex HPLC system and a Superdex200 increase 5/150 GL (Cytiva). Binding of Collagen II was evaluated by SPR measurements using a Biacore 3000 system. Purified Collagen II was obtained from Chondrex.inc and VEGF-165 was obtained from Millipore. Targets were immobilized on a CM5-Sensor via NHS/EDC chemistry (immobilization level ˜1000 RU). Binding molecules were injected at different concentration and affinity was calculated by langmuir 1:1 binding model.
The purified proteins were immobilized on a CM-5 sensor chip (GE Healthcare) using NHS/EDC after PDEA activation resulting in 110-140 RU with a Biacore 3000 system (GE Healthcare). The chip was equilibrated with SPR running buffer (PBS 0.05% Tween pH 7.3). Upon binding, target analyte was accumulated on the surface increasing the refractive index. This change in the refractive index was measured in real time and plotted as response or resonance units versus time. The analytes were applied to the chip in serial dilutions with a flow rate of 30 μl/min. The association was performed for 120 seconds and the dissociation for 120 seconds. After each run, the chip surface was regenerated with 30 μl regeneration buffer (10 mM glycine pH 2.0) and equilibrated with running buffer.
Binding studies were carried out by the use of the BIAcore 3000 (GE Healthcare); data evaluation was operated via the BIAevaluation 3.0 software, provided by the manufacturer, using the Langmuir 1:1 model (RI=0). Evaluated dissociation constants (KD) were standardized against the immobilized protein and indicated. Shown is the change in refractive index measured in real time and plotted as response or resonance unit [RU] versus time [sec].

[2] = biological target: T2, human collagen type III (Homo sapiens, UniProt P02461); experiment: ELISA specificity vs human collagen type III; assay type: binding
T2 construct: purchased Abcam ab7535
T2 sequence (P02461 154-1221 limits assumed): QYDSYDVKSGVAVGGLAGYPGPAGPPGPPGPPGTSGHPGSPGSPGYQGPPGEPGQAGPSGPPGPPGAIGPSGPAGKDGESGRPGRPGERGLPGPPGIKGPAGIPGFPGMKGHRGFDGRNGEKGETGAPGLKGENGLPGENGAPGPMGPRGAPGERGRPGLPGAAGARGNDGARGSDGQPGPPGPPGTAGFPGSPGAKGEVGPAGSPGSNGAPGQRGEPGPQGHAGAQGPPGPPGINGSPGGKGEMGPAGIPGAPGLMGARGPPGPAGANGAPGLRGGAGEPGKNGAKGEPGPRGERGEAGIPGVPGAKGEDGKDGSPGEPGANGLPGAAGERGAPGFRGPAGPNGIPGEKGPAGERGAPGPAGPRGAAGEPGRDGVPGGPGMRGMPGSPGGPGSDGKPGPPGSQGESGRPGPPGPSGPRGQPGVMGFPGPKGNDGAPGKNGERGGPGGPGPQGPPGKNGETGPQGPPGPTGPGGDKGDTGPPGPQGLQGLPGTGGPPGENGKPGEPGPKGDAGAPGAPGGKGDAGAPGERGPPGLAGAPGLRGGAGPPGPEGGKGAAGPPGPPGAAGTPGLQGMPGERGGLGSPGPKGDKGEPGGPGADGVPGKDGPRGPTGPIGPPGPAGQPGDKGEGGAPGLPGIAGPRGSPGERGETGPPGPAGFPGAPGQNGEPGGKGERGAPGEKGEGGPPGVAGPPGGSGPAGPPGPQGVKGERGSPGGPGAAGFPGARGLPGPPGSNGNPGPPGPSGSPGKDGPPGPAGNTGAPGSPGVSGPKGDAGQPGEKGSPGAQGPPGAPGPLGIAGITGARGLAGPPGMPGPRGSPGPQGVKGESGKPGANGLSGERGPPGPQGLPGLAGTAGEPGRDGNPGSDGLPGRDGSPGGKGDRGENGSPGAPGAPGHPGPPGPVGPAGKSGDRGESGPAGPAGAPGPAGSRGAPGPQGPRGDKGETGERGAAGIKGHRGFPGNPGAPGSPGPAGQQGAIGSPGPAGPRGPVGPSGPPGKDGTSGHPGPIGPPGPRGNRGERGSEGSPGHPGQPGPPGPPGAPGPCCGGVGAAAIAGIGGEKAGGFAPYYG
Procedure: High binding plates (Greiner, 781061) were immobilized with 2.5 μg/ml recombinant human collagen type II (h Col II, Chondrex, CHX-20051), rabbit collagen type II (rbCol II, prepared from rabbit eyes), porcine collagen type II (p Col II, prepared from porcine eyes), human collagen type I, (h Col I, Sigma, C5483-1MG), human collagen type V (h Col V, Abcam, ab7537), human collagen type III (h Col Ill, Abcam, ab7535) and 67B89 (domain of fibronectin, produced in E. coli) respectively over night at 4° C. ELISA-plates were washed 3 times with PBST (PBS+ 0.1% Tween) and blocked with 3% BSA/0.5% Tween/PBS 2 h at RT. After washing with PBST, dilution series of 1.1 μM to 7×10^−4 nM of dimers (CID 211999, CID 212000), dilution series of 100 nM to 7×10^−6 nM of tetramers (CID 212001 and CID 212704) and dilution series of 10 μM to 2 nM of dimer (CID 212705) were incubated on ELISA-plates 1 h at rt. Plates were washed with PBST and incubated with biotinylated anti-StrepTag-ab (Antikörper-online, ABIN1573895) with a dilution of 1:10.000 for 1 h at rt. The binding was visualized with a-rabbit-IgG-HRP (Sigma, A9169) with a dilution of 1:10.000 and as substrate TMB Plus von KEM EN TEC Diagnostic, Kat-Nr. 4395.

T1 sequence (P02458 182-1241): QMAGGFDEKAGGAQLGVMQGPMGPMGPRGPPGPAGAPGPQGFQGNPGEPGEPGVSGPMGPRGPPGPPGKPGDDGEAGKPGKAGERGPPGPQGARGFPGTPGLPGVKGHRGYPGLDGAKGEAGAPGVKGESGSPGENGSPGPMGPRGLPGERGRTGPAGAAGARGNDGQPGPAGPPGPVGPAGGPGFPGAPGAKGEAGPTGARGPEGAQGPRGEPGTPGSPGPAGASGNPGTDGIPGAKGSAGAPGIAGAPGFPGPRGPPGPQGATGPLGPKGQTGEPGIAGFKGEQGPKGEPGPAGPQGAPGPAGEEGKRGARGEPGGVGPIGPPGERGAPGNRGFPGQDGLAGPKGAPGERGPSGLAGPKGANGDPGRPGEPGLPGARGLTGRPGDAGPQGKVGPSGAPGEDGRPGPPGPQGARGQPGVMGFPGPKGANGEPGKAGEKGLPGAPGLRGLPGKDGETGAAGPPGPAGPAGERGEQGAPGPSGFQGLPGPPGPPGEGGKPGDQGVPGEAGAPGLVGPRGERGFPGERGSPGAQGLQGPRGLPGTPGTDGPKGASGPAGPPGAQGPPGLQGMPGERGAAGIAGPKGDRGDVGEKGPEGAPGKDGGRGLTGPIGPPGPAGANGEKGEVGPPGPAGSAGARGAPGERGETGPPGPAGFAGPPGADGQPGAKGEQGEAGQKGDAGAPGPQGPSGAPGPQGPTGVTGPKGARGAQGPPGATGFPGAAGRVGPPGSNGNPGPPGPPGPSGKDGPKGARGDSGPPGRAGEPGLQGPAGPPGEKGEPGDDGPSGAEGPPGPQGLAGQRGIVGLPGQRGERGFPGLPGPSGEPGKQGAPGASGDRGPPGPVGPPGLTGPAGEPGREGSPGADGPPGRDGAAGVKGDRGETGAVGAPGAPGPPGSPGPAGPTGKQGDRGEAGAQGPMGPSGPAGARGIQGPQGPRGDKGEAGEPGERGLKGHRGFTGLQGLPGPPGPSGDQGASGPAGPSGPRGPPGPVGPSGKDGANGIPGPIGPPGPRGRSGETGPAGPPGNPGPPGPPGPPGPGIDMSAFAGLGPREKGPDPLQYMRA

Affinity [SPR] vs hCol2 [1]: 180 nM
binding to type III collagen (ELISA) [2]: No unspecific binding
B1: CID 212000: dimer of SEQ ID NO: 2 (dimer with linker between the monomers) (protein)
chain: IAAKFDEAQSAADSEILHLPNLTEQQRHYFRRWLSDDPSVSTHILTQAQHLNDDQAPKGGGGSGGGGSGGGGSGGGGSIAAKFDEAQSAADSEILHLPNLTEQQRHYFRRWLSDDPSVSTHILTQAQHLNDDQAPKSAWSHPQFEK
modifications: Col2 binding protein (dimer of 211261) (CID212000)
